# According to article PMC12866851, “ACSL5 Regulates Glucose Metabolism and Chemotherapy Sensitivity in Colorectal Cancer Cells under Glutamine Deficiency” (Advanced Science, 2025):
# Target: the molecule itself
# Experiment: cross-linking; HCT116 cells (shctrl or shACSL5) treated without or with DSS crosslinker; whole cell lysates, Western blot against IDH2; dimer and monomer of IDH2
protein,measurement,value
"isocitrate dehydrogenase 2 (IDH2) (enzyme, human (endogenous in HCT116), UniProt P48735 40-452, looked up, IDH2, mitochondrial isocitrate dehydrogenase 2, endogenous in human HCT116 cells; source: endogenous, HCT116 lysate) ADKRIKVAKPVVEMDGDEMTRIIWQFIKEKLILPHVDIQLKYFDLGLPNRDQTDDQVTIDSALATQKYSVAVKCATITPDEARVEEFKLKKMWKSPNGTIRNILGGTVFREPIICKNIPRLVPGWTKPITIGRHAHGDQYKATDFVADRAGTFKMVFTPKDGSGVKEWEVYNFPAGGVGMGMYNTDESISGFAHSCFQYAIQKKWPLYMSTKNTILKAYDGRFKDIFQEIFDKHYKTDFDKNKIWYEHRLIDDMVAQVLKSSGGFVWACKNYDGDVQSDILAQGFGSLGLMTSVLVCPDGKTIEAEAAHGTVTRHYREHQKGRPTSTNPIASIFAWTRGLEHRGKLDGNQDLIRFAQMLEKVCVETVESGAMTKDLAGCIHGLSNVKLNEHFLNTTDFLDTIKSNLDRALGRQ",stoichiometry N,2
